Measured values taken from article PMC8380825 (Journal of molecular biology, 2021).
Several values for one entry are separate records, joined by “and”; a condition that tells them apart may be missing. Equal values may be shown once. Read-outs that look alike come from different tables or passages of the source. One block for each molecule: values may come before it. Where no end group is shown, it is not given here. TAMRA = 5(6)-carboxytetramethylrhodamine

Tests used:
NPR-1 [1] = molecular target: T1, NPR-1 (Caenorhabditis elegans, UniProt Q18534); assay: cAMP reporter gene assay; assay type: cell-based, C. elegans; details: wild type NPR-1
T1 sequence (Q18534 1-457): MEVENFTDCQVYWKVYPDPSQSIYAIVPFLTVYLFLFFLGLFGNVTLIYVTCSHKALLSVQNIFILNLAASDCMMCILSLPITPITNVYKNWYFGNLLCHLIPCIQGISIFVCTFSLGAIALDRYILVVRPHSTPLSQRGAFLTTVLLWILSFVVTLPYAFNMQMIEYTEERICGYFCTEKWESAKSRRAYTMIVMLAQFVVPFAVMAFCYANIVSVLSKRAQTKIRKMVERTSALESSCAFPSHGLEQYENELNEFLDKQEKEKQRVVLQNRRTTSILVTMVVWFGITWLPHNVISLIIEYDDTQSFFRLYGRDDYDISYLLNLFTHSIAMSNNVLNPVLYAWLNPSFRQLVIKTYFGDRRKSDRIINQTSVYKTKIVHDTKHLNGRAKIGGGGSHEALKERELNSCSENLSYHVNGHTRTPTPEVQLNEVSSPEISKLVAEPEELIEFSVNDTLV

[2] = molecular target: T2, Nluc-NPR-1-eYFP (C. elegans neuropeptide receptor NPR-1, wild type) (C. elegans) (UniProt Q18534)
T2 sequence: T1 sequence (Q18534 1-457)

NPR-11 = molecular target: T3, NPR-11 (Caenorhabditis elegans, UniProt Q18179); assay: cAMP reporter gene assay; assay type: cell-based, C. elegans; details: wild type NPR-11
T3 sequence (Q18179 1-402): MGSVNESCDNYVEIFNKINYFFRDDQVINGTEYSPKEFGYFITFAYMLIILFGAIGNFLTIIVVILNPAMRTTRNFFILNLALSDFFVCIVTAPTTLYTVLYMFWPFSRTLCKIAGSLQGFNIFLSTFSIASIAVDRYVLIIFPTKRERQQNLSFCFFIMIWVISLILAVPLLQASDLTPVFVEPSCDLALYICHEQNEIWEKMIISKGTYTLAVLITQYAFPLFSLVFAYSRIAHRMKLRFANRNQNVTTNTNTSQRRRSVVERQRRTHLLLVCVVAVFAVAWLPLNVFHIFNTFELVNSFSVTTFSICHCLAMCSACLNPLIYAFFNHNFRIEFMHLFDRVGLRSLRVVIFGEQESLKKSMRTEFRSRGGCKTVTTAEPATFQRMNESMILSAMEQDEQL

NPR-1 [3] = molecular target: T1, NPR-1; assay: NanoBRET displacement binding assay, Nluc-NPR-1; parameters: species or system C. elegans; details: HEK293 membranes, 100 nM [TAMRA]-FLP-21 tracer, 90 min, room temperature
[4] = molecular target: T2, Nluc-NPR-1-eYFP (C. elegans neuropeptide receptor NPR-1, wild type) (C. elegans); remark: listed apart in the source
NPR-1 mutants [5] = molecular target: NPR-1 mutants (Caenorhabditis elegans, UniProt Q18534, E301A); assay: cAMP reporter gene assay; assay type: cell-based, C. elegans; details: NPR-1 E^6.59A
NPR-1 mutants [6] = molecular target: NPR-1 mutants (Caenorhabditis elegans, UniProt Q18534, E180D); assay: cAMP reporter gene assay; assay type: cell-based, C. elegans; details: NPR-1 E^5.27D
NPR-11 mutants = NPR-11 mutants (Caenorhabditis elegans, UniProt Q18179, E196D); assay: cAMP reporter gene assay; assay type: cell-based, C. elegans; details: NPR-11 E^5.23D
[7] = molecular target: T2, Nluc-NPR-1-eYFP (C. elegans neuropeptide receptor NPR-1, wild type) (C. elegans); remark: listed apart in the source
[8] = molecular target: Nluc-NPR-11-eYFP Q3.32H (C. elegans) (UniProt Q18179); assay: FRET or BRET
[9] = molecular target: T4, Nluc-NPR-11-eYFP (C. elegans neuropeptide receptor NPR-11, wild type) (C. elegans, UniProt Q18179 1-402); assay: FRET or BRET
T4 sequence (looked up): T3 sequence (Q18179 1-402)

[10] = molecular target: T5, Nluc-NPR-1-eYFP (C. elegans neuropeptide receptor NPR-1, wild type) (C. elegans, UniProt Q18534 1-457); assay: cell-based or functional assay
T5 sequence (looked up): T1 sequence (Q18534 1-457)

[11] = molecular target: T5, Nluc-NPR-1-eYFP (C. elegans …); assay: FRET or BRET
[12] = molecular target: Nluc-NPR-11-eYFP Q3.32A (C. elegans) (UniProt Q18179); assay: FRET or BRET
[13] = molecular target: T4, Nluc-NPR-11-eYFP (C. elegans …); assay: cell-based or functional assay
[14] = molecular target: T2, Nluc-NPR-1-eYFP (C. elegans neuropeptide receptor NPR-1, wild type) (C. elegans); remark: listed apart in the source
[15] = molecular target: NPR-11-eYFP E5.23D (C. elegans), Q18179
[16] = molecular target: Nluc-NPR-11-eYFP Q3.32A (C. elegans) (UniProt Q18179)
[17] = molecular target: NPR-1-eYFP E6.59D (C. elegans), Q18534
[18] = molecular target: NPR-1-eYFP E6.59A (C. elegans), Q18534
[19] = molecular target: NPR-1-eYFP E5.27D (C. elegans), Q18534

Chain of NPR-11 mutants (Q18179 whole entry E196D): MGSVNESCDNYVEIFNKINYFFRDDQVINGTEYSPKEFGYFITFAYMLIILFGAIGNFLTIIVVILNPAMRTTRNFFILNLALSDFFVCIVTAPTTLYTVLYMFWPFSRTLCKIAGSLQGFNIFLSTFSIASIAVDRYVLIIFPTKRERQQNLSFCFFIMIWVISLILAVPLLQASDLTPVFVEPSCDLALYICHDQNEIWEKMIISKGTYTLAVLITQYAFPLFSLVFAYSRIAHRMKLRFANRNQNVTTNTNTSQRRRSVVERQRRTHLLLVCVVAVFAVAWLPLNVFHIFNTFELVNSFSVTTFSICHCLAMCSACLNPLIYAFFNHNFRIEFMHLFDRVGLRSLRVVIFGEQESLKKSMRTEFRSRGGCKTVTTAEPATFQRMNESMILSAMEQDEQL
Chain of NPR-1 mutants (Caenorhabditis elegans, UniProt Q18534, E301A) (Q18534 whole entry E301A): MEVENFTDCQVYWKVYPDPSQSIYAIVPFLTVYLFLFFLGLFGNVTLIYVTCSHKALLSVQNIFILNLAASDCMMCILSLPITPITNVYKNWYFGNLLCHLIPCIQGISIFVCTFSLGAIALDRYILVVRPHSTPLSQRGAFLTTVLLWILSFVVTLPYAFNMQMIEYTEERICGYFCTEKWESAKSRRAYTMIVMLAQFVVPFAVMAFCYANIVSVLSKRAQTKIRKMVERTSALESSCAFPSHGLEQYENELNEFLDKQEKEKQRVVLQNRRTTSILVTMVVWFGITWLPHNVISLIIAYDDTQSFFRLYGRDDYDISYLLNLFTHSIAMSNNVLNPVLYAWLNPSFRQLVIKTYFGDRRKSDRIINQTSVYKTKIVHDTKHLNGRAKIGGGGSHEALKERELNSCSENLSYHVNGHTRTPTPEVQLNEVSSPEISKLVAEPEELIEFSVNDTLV
Chain of NPR-1 mutants (Caenorhabditis elegans, UniProt Q18534, E180D) (Q18534 whole entry E180D): as the sequence (Q18534 whole entry E301A) above, with E180D, A301E counted along it

EC50 shift (loss of potency) relative to wild type FLP-21 (NPR-1 [1]): 3 fold
Molecule: Ac-FLP-21: FLP-21 acetylated at the free N terminus (Ac-GLGPRPLRF-NH2)

cAMP reporter gene assay (Gi/o), EC50 shift against wild type FLP-21 [2]: > 600 fold
Molecule: [F9Cha]-FLP-21 (peptide)

EC50 shift relative to wild type FLP-21 (NPR-11): 20 fold
EC50 shift (loss of potency) relative to wild type FLP-21 (NPR-1 [1]): > 600 fold
Molecule: [F^9Cha]-FLP-21: FLP-21 variant, F^9 replaced with cyclohexylalanine

receptor activation in words (NPR-11): wild type-like activity
EC50 shift (loss of potency) relative to wild type FLP-21 (NPR-1 [1]): 14 fold
Ki shift relative to wild type FLP-21 (NPR-1 [3]): 11 fold
Molecule: [F^9Y]-FLP-21: FLP-21 variant, F^9 to tyrosine (GLGPRPLRY-NH2)

EC50 shift relative to wild type FLP-34–1 (NPR-11): > 140 fold
Molecule: [L^16A]-FLP-34–1: FLP-34–1 variant, L^16 to alanine (ADISTFASAINNAGRARY-NH2)

receptor activation in words (NPR-11): impaired activation
Molecule: [L^16Q]-FLP-34–1: FLP-34–1 variant, L^16 to glutamine (ADISTFASAINNAGRQRY-NH2)

EC50 shift relative to wild type FLP-21 (NPR-11): 18 fold
EC50 shift (loss of potency) relative to wild type FLP-21 (NPR-1 [1]): 34 fold
Molecule: [P^6A]-FLP-21: FLP-21 variant, P^6 to alanine (GLGPRALRF-NH2)

cAMP reporter gene assay (Gi/o), EC50 of receptor activation [4]: 5.2 nM
Molecule: [R5hArg]-FLP-21 (peptide)

EC50 shift (loss of potency) relative to wild type FLP-21 (NPR-1 [1]): 368 fold
Molecule: [R^5A]-FLP-21: FLP-21 variant, R^5 to alanine (GLGPAPLRF-NH2)

Molecule: [R^8hArg]-FLP-21: FLP-21 variant, R^8 replaced with homoarginine
EC50 shift relative to wild type FLP-21 (NPR-11): 135 fold
EC50 shift (loss of potency) relative to wild type FLP-21 (NPR-1 [1]): > 900 fold and 976 fold
EC50 shift relative to wild type FLP-21 at the same receptor mutant (NPR-1 mutants [5]): 91 fold
EC50 shift relative to wild type FLP-21 at the same receptor mutant (NPR-1 mutants [6]): 34 fold

EC50 shift relative to wild type FLP-34–1 (NPR-11): > 900 fold
Molecule: [R^15A]-FLP-34–1: FLP-34–1 variant, R^15 to alanine (ADISTFASAINNAGALRY-NH2)

Molecule: [R^17hArg]-FLP-34–1: FLP-34–1 variant, R^17 to homoarginine
EC50 shift relative to wild type FLP-34–1 (NPR-11): > 70 fold and 77 fold
EC50 shift compared to wild type FLP-34–1 at the same receptor mutant (NPR-11 mutants): 0.9 fold

cAMP reporter gene assay (Gi/o), decrease of activity against wild type FLP-21 [7]: 34 fold
B1: [P6A]-FLP-21 (peptide)
peptide: GLGPRALRF-NH2

fold reduction of binding affinity against wild type NPR-11 [8]: 4 fold
B2: [TAMRA]-FLP-34–1 (peptide)
peptide: {TAMRA}-ADISTFASAINNAGRLRY-NH2

Ki [9]: 107 nM
B3: FLP-34–1 (ADISTFASAINNAGRLRYamide) (peptide)
peptide: ADISTFASAINNAGRLRY-NH2

Ki [9]: 107 nM
B4: FLP-21 (GLGPRPLRFamide) (peptide)
peptide: GLGPRPLRF-NH2

cAMP reporter gene assay (Gi/o), EC50 shift against wild type FLP-21 [10]: 14 fold
fold shift of Ki against wild type FLP-21 [11]: 11 fold
B5: [F9Y]-FLP-21 (peptide)
peptide: GLGPRPLRY-NH2

Kd [12]: 190 nM
cAMP reporter gene assay (Gi/o), reduction of potency against wild type FLP-21 [10]: 12 fold
B6: [TAMRA]-FLP-21 (peptide)
peptide: {TAMRA}-GLGPRPLRF-NH2

fold reduction of Ki against FLP-21 [12]: 100 fold
cAMP reporter gene assay (Gi/o), decrease of activity against wild type FLP-21 [10]: 497 fold
cAMP reporter gene assay (Gi/o), EC50 shift against wild type FLP-21 [13]: 10 fold
fold reduction of Ki against FLP-21 [9]: < 10 fold
B7: [L7A]-FLP-21 (peptide)
peptide: GLGPRPARF-NH2

cAMP reporter gene assay (Gi/o), reduction of potency against wild type FLP-21 [14]: 3 fold
B8: N-terminally acetylated FLP-21 (peptide)
peptide: Ac-GLGPRPLRF-NH2

cAMP reporter gene assay (Gi/o), EC50 shift against wild type FLP-21 [7]: 368 fold
B9: [R5A]-FLP-21 (peptide)
peptide: GLGPAPLRF-NH2

cAMP reporter gene assay (Gi/o), EC50 against the wild type receptor [15]: 92 fold
B10: FLP-34–1 (…amide) (peptide)
peptide: ADISTFASAINNAGRLRY-NH2

cAMP reporter gene assay (Gi/o), EC50 of receptor activation [16]: 0.1 nM
cAMP reporter gene assay (Gi/o), EC50 of receptor activation [17]: 0.13 nM
cAMP reporter gene assay (Gi/o), EC50 of receptor activation [18]: 20 nM
cAMP reporter gene assay (Gi/o), EC50 of receptor activation [19]: 495 nM
B11: FLP-21 (…amide) (peptide)
peptide: GLGPRPLRF-NH2
